# According to PMC12905498 (Biochemical Journal, 2026):
# B1: Pfs48/45 Domain 3 (domain or fragment)
# chain: KVIHGCNFSSNVSSKHTFTDSLDISLVDDSAHISCNVHLSEPKYNHLVGLNCPGDIIPDCFFQVYQPESEELEPSNIVYLDSQINIGDIEYYEDAEGDDKIKLFGIVGSIPKTTSFTCICKKDKKSAYMTVTIDSA
# notes: source: Sf21 cells (baculovirus), purified as PfHAP2 D3 (Ni-NTA, SEC)
# B2: anti-PbHAP2 D3 mAb 6.14 (variable regions in AbVec-hIgG1 and AbVec-IgKappa) (antibody, V domains shown)
# VH: EVQLVESGGGLVKPGGSLKLSCAASEFTFSDYGMHWVRQAPEKGLEWVASISSGSNSIYYSDTVKGRFTISRDNAKSILFLQMTSLRSEDTAMYYCSREAYFAMDYWGQGTSVTVSS
# VL: DIQMTQSPSSLSAILGGKVTITCKASQDIHKYIAWYQHKPGKGPRLLIYYTSTLQPGIPSRFSGSGSGRDYSFSISNLEPEDVATYFCLQYDNLYTFGGGTKVEIE
# notes: also called anti-PbHAP2 mAb 6.14; source: Expi293 cells, transient transfection (1:1 light and heavy chain plasmids), purified as the nanobody-Fcs (HiTrap PrismA)
# B3: Plasmodium vivax HAP2 domain 3 (domain or fragment)
# chain: VSTATITHITTPKNCSSNQSESKDCVLIVHTWNNSANVGSNFSCHVICTDKETGKIATHIGPISPVNAFIDANKNYAFYFIIKFLINKEIKTMCKAVLRDSNGKECSKEDFLLTSKE
# notes: as for B1
# B4: Plasmodium falciparum HAP2 domain 3 (PfHAP2 D3 HisAvi), deglycosylated (domain or fragment)
# chain: VSYGTITHITIPKDCSSNQTNSKECILVVHTWNNNKTIGANFSCHVLCVDKSTQQVATHISPISKINAHIDANKNYAFYFIIKFLINKKITSNCTAILKDADGRECSKLSFNLTSKETIN
# B5: Plasmodium berghei HAP2 domain 3 (domain or fragment)
# chain: VSIATITHVTIPNDCASNNSNSNECVLIIHVWNNSKFVGSNFSCSIACTNKETDQLASHINPIAPVRAFIGPNKNYAFYFIIKFLINKEITTLCKAIVKDSNGKECSIEEFELQSKESVH
# notes: as for B1
# Columns and labels:
# Settings in all cases: both partners purified
# [1] = biological target: T1, WNbFc 335 (nanobody WNb 335 fused to hinge and Fc of human IgG1) (alpaca); experiment: ELISA
# T1 construct: also called WNb 335 nanobody-Fc; source: Expi293 cells, transient transfection, purified (HiTrap PrismA)
# [2] = biological target: T2, WNbFc 333 (nanobody WNb 333 fused to hinge and Fc of human IgG1) (alpaca); experiment: ELISA
# T2 construct: also called WNb 333 nanobody-Fc; source: Expi293 cells, transient transfection, purified (HiTrap PrismA)
# [3] = biological target: T3, WNbFc 334 (nanobody WNb 334 fused to hinge and Fc of human IgG1) (alpaca); experiment: ELISA
# T3 construct: also called WNb 334 nanobody-Fc; source: Expi293 cells, transient transfection, purified (HiTrap PrismA)
# [4] = biological target: B4; experiment: BLI; affinity: nanobody-Fcs or antibodies (5 µg/ml) loaded on anti-human IgG Fc Capture (AHC) tips, two-fold dilution series of antigen; PBS pH 7.4, 0.1% BSA, 0.05% TWEEN-20, 25°C; 1:1 Langmuir model; mean of two experiments
# [5] = biological target: T2, WNbFc 333 (nanobody WNb 333 fused to …); experiment: BLI
# [6] = biological target: T1, WNbFc 335 (nanobody WNb 335 fused to …); experiment: BLI; affinity: nanobody-Fcs or antibodies (5 µg/ml) loaded on anti-human IgG Fc Capture (AHC) tips, two-fold dilution series of antigen; PBS pH 7.4, 0.1% BSA, 0.05% TWEEN-20, 25°C; 1:1 Langmuir model; mean of two experiments
# [7] = biological target: T2, WNbFc 333 (nanobody WNb 333 fused to …); experiment: as above
# [8] = biological target: T3, WNbFc 334 (nanobody WNb 334 fused to …); experiment: as above
binder,measurement,setting,value
B1,binding result,[1],no binding (tested: 125 nM)
same,binding result,[2],no binding (tested: 125 nM)
same,binding result,[3],no binding (tested: 125 nM)
B2,binding result,[4],no binding
B3,binding result,[5],binds
B4,Kd,[6],50.8 nM
same,Kd,[7],15.8 nM
same,Kd,[8],26.1 nM
B5,binding result,[5],binds
same,binding result,[8],binds
